Where a chain is given by its changes, count along the chain named.
B1: Humanized version I of EP101 (hu IgG1) (antibody, V domains shown)
VH: QMQLVQSGPEVKKPGTSVKVSCKASGFTFTDYSMNWVRQARGQRLEWLGFIRNKANDYTTEYSASVKGRVTITRDMSTSTAYMELSSLRSEDTAVYYCARYPRYHAMDSWGQGTSVTVSS
VL: DIVMTQSPSSLSASVGDRVTIICRASQSISNNLHWYQQKPGKAPKLLIKYVFQSISGVPSRFSGSGSGTDFTFTISSLQPEDFATYYCQQSNSWPLTFGGGTKVEIK
B2: Humanized version III of EP101 (hu IgG1) (antibody, V domains shown)
VH: B1 VH with L48I
VL: B1 VL
B3: Humanized version II of EP101 (hu IgG1) (antibody, V domains shown)
VH: B1 VH with L48I
VL: B1 VL with V3Q, I22T
B4: Mouse version of EP101 (mouse IgG) (antibody, V domains shown)
VH: EVKLVESGGGLVQPGGSLSLSCAASGFTFTDYSMNWVRQPPGKALEWLGFIRNKANDYTTEYSASVKGRFTISRDNSQSILYLQMNALRAEDSATYYCVRYPRYHAMDSWGQGTSVTVSS
VL: DIVLTQSPATLSVTPGDSVNLSCRASQSISNNLHWYQQKSHESPRLLIKYVFQSISGIPSRFSGSGSGTDFTLSINSVETEDFGMYFCQQSNSWPLTFGAGTKLELK
notes: Mouse IgG; also called anti-human EphA2 monoclonal antibody EP101; parental murine antibody
B5: Chimaeric version of EP101 (hu IgG1) (antibody, V domains shown)
VH: B4 VH
VL: B4 VL
notes: Chimeric Fab cloned and expressed as a full length human IgG1; also called chimeric version of anti-EphA2 antibody

target: T1, human EphA2 (human, UniProt P29317 24-534, limits assumed); assay: BIAcore; format not stated
T1 construct: Target of the BIAcore analysis as named in the text
T1 sequence (P29317 24-534 limits assumed): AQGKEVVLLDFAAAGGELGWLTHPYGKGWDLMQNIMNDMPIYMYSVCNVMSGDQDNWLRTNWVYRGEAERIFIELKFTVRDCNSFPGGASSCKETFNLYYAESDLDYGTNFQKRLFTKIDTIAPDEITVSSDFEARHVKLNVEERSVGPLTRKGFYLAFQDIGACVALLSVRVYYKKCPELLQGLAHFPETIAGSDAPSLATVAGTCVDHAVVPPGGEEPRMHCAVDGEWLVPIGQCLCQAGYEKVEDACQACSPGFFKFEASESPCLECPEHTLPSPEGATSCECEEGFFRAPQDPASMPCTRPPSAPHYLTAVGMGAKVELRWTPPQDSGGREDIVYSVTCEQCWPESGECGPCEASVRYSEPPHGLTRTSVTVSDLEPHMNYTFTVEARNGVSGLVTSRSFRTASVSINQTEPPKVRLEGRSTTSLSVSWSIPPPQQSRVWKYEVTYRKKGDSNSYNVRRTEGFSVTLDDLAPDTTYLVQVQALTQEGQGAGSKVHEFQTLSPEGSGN

| Kd | koff | kon | Binder |
| --- | --- | --- | --- |
| 0.7 nM | 3.76e-05 s⁻¹ | 53200 M⁻¹ s⁻¹ | B1 |
| 1.3 nM | 7.62e-05 s⁻¹ | 60000 M⁻¹ s⁻¹ | B2 |
| 1.2 nM | 4.13e-05 s⁻¹ | 35600 M⁻¹ s⁻¹ | B3 |
| 0.3 nM | 0.000101 s⁻¹ | 330000 M⁻¹ s⁻¹ | B4 |
| 0.3 nM | 8.04e-05 s⁻¹ | 242000 M⁻¹ s⁻¹ | B5 |

Reference: US20050042664A1 (AstraZeneca / MedImmune, published 2005)
